Results from patent US20260167959A1, “APTAZYME-BASED REGULATABLE GENE EXPRESSION SYSTEMS” (REJUVENATE BIO INC, priority 2022, published 2026).

B1: RA464 (nucleic acid)
DNA: GCGCGTCCTGGAGTGATACCAGCATCGTCTTGATGCCCTTGGCAGCACTATTCGCGGAAACGCGTACATCCAGCTGACGAGTCCCAAATAGGACGAAACGCGC
modifications: expressed or natural sequence
B2: RA457 (nucleic acid)
DNA: GCGCGTCCTGGATTCGCGGAAACGCGTACATCCAGCTGACGAGTCCCAAATAGGACGAAGTGATACCAGCATCGTCTTGATGCCCTTGGCAGCACTAACGCGC
modifications: expressed or natural sequence
B3: RA468 (nucleic acid)
DNA: GCGCGTCCTGGATTCGCGGAAACGCGTACATCCAGCCGAGAATACCAGCATCGTCTTGATGCCCTTGGAAGTCTCGTGACGAGTCCCAAATAGGACGAAACGCGC
modifications: expressed or natural sequence; listed as DNA, chemistry not fully specified
B4: RA470 (nucleic acid)
DNA: GCGCGTCCTGGATTCGCGGAAACCGAGAATACCAGCATCGTCTTGATGCCCTTGGAAGTCTCGGCGTACATCCAGCTGACGAGTCCCAAATAGGACGAAACGCGC
modifications: expressed or natural sequence
B5: RA458 (nucleic acid)
DNA: GCGCGTCCTGGATTCGCGGAAACGCGTACATCCAGCTGACGAGTCCCAAATAGGACGAACCGGAATACCAGCATCGTCTTGATGCCCTTGGAAGTCCGGACGCGC
modifications: expressed or natural sequence
B6: RA048 (nucleic acid)
DNA: GCGCGTCCTGGATTCGCGGAAACGCGTACATCCAGCTGACGCGAGAATACCAGCATCGTCTTGATGCCCTTGGAAGTCTCGAGTCCCAAATAGGACGAAACGCGC
modifications: expressed or natural sequence
B7: RA474 (nucleic acid)
DNA: GCGCGTCCTGGATTCGCGGAAACGCGTACATCCAGCTGACGAGTCCCAAATAGGACGAAACGCGCGGAATACCAGCATCGTCTTGATGCCCTTGGAAGTCCGC
modifications: expressed or natural sequence
B8: RA465 (nucleic acid)
DNA: GCGCGTCCTGGATTCGCGGAAACGCGTACATCCAGCTGACCGAGAATACCAGCATCGTCTTGATGCCCTTGGAAGTCTCGGAGTCCCAAATAGGACGAAACGCGC
modifications: expressed or natural sequence
B9: RA046 (nucleic acid)
DNA: GCGCGTCCTGGATTCGCGGAAACGCGTACATCCAGCTGACGAGTCCGGAATACCAGCATCGTCTTGATGCCCTTGGAAGTCCGCCAAATAGGACGAAACGCGC
modifications: expressed or natural sequence
B10: RA469 (nucleic acid)
DNA: GCGAGAATACCAGCATCGTCTTGATGCCCTTGGAAGTCTCGCGCGTCCTGGATTCGCGGAAACGCGTACATCCAGCTGACGAGTCCCAAATAGGACGAAACGCGC
modifications: expressed or natural sequence
B11: RA462 (nucleic acid)
DNA: GCGCGTCCTGGATTCGCGCCGGAATACCAGCATCGTCTTGATGCCCTTGGAAGTCCGGGAAACGCGTACATCCAGCTGACGAGTCCCAAATAGGACGAAACGCGC
modifications: expressed or natural sequence
B12: RA473 (nucleic acid)
DNA: GCGCGTCCTGGATTCGCGGAAACGCGTACATCCAGCTGACGAGTCCCAAATAGTGATACCAGCATCGTCTTGATGCCCTTGGCAGCACTAGGACGAAACGCGC
modifications: expressed or natural sequence
B13: RA476 (nucleic acid)
DNA: GCGCGTCCTGGATTCGCGGAAACGCGTACATCCAGCTGACGAGTCCCAAATAGGACGAAAAGAATACCAGCATCGTCTTGATGCCCTTGGAAGTCTCGCGC
modifications: expressed or natural sequence
B14: RA456 (nucleic acid)
DNA: GCGCGTCCTGGATTCGCGGAAACGCGTACATCCAGCTGACGAGTCCCAAATACCGGAATACCAGCATCGTCTTGATGCCCTTGGAAGTCCGGGGACGAAACGCGC
modifications: expressed or natural sequence
B15: RA045 (nucleic acid)
DNA: GAGAATACCAGCATCGTCTTGATGCCCTTGGAAGTCTCGCGCGTCCTGGATTCGCGGAAACGCGTACATCCAGCTGACGAGTCCCAAATAGGACGAAACGCGC
modifications: expressed or natural sequence
B16: RA047 (nucleic acid)
DNA: GCGCGTCCTGGATTCGCGGAAACGCGTACATCCAGCTGACGAGTCCCAGGAATACCAGCATCGTCTTGATGCCCTTGGAAGTCCAATAGGACGAAACGCGC
modifications: expressed or natural sequence
B17: RA004: exemplary aptazyme of the T3H48 aptazyme variant library (nucleic acid)
DNA: GCGCGTCCTGGATTCGCGGAAACGCGTACATCCAGCTGACGAGTCCCAAATAGGCCGGAATACCAGCATCGTCTTGATGCCCTTGGAAGTCCGGACGAAACGCGC
modifications: expressed or natural sequence
notes: exemplary aptazyme of the T3H48 aptazyme variant library
B18: RA466 (nucleic acid)
DNA: GCGCGTCCTGGATTCGCGGAACGGAATACCAGCATCGTCTTGATGCCCTTGGAAGTCCGACGCGTACATCCAGCTGACGAGTCCCAAATAGGACGAAACGCGC
modifications: expressed or natural sequence
B19: RA455 (nucleic acid)
DNA: GCGCGTCCTGGATTCGCGGAAACGCGTACATCCAGCTGACGAGTCCCCGGAATACCAGCATCGTCTTGATGCCCTTGGAAGTCCGGCAAATAGGACGAAACGCGC
modifications: expressed or natural sequence
B20: RA472 (nucleic acid)
DNA: GCGCGTCCTGGATTCGCGGAAACGCGTACATCCAGCTGACGAGTCCCAAATAGAGAATACCAGCATCGTCTTGATGCCCTTGGAAGTCTCGGACGAAACGCGC
modifications: expressed or natural sequence
B21: RA459 (nucleic acid)
DNA: GCGCGTCCTGGATTCGCGGAAACGCGTACATCCAGCTGACGAGTCCCAAATAGGACGAAGGAATACCAGCATCGTCTTGATGCCCTTGGAAGTCCACGCGC
modifications: expressed or natural sequence
B22: RA460 (nucleic acid)
DNA: GCGCGTCCTGGATTCGCAGTGATACCAGCATCGTCTTGATGCCCTTGGCAGCACTGGAAACGCGTACATCCAGCTGACGAGTCCCAAATAGGACGAAACGCGC
modifications: expressed or natural sequence
B23: RA467 (nucleic acid)
DNA: GCGCGTCCTGGATTCGCGGAAACGAGAATACCAGCATCGTCTTGATGCCCTTGGAAGTCTCGTACATCCAGCTGACGAGTCCCAAATAGGACGAAACGCGC
modifications: expressed or natural sequence
B24: RA471 (nucleic acid)
DNA: GCGCGTCCTGGATTCGCGGAAACGCGTACATCCAGCTGACGAGTCCCAAATAGGACCGAGAATACCAGCATCGTCTTGATGCCCTTGGAAGTCTCGGAAACGCGC
modifications: expressed or natural sequence
B25: RA475 (nucleic acid)
DNA: GCGCGTCCTGGATTCGCGGAAACGCGTACATCCAGCTGACGAGTCCCAAATAGGACGAAACGCGAGAATACCAGCATCGTCTTGATGCCCTTGGAAGTCTCGC
modifications: chemistry not given here
B26: RA463 (nucleic acid)
DNA: GCGCGTCCTGGATTCGCGGAAACGCGTACATCCAGCTGACGAGTCGAGAATACCAGCATCGTCTTGATGCCCTTGGAAGTCTCGCCCAAATAGGACGAAACGCGC
modifications: expressed or natural sequence
B27: RA461 (nucleic acid)
DNA: GCGCGTCCTGGATTCGCGGAAACGCGTACATCCAGGAGAATACCAGCATCGTCTTGATGCCCTTGGAAGTCTCCTGACGAGTCCCAAATAGGACGAAACGCGC
modifications: expressed or natural sequence

Test system: Renilla luciferase RNA
Test: Barcoded aptazyme variant library screen: un-cleaved Renilla luciferase RNA by barcode read counts, HEK293-T cells
Type: cell-based
Settings: triplicate
In short: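 Aptazyme variants (seven theophylline aptamers inserted after each T3H48 ribozyme nucleotide, 9-nt barcoded) cloned into the 3′ UTR of Renilla luciferase in psiCHECK-2; cells cultured ± theophylline, in triplicate. RNA and DNA barcodes amplified and sequenced; normalized read counts gave un-cleaved RNA fraction and ON/OFF fold-change.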

[1] = un-cleaved Renilla luciferase RNA by barcode read counts, with 1 mM theophylline (ON) over without theophylline (OFF), HEK293-T cells
[2] = un-cleaved Renilla luciferase RNA, HEK293-T cells cultured with 1 mM theophylline (ON) over without theophylline (OFF), barcode read counts

Row | Molecule | Fold change in RNA expression between the ON state and the OFF state [1] | Fold change in RNA expression between the ON state and the OFF state [2] [fold]
1 | B1 | 0.4 | –
2 | B2 | 0.5 | –
3 | B3 | 0.4 | –
4 | B4 | 0.4 | –
5 | B5 | 0.5 | –
6 | B6 | – | 2.0
7 | B7 | 0.3 | –
8 | B8 | 0.4 | –
9 | B9 | – | 2.0
10 | B10 | 0.4 | –
11 | B11 | 0.4 | –
12 | B12 | 0.3 | –
13 | B13 | 0.2 | –
14 | B14 | 0.5 | –
15 | B15 | – | 2.0
16 | B16 | – | 2.0
17 | B17 | – | 5.3
18 | B18 | 0.4 | –
19 | B19 | 0.5 | –
20 | B20 | 0.3 | –
21 | B21 | 0.5 | –
22 | B22 | 0.5 | –
23 | B23 | 0.4 | –
24 | B24 | 0.4 | –
25 | B25 | 0.3 | –
26 | B26 | 0.4 | –
27 | B27 | 0.5 | –
